Source: patent US10323078B2, “Isolated peptides and fragments thereof from fibrinogen for use as drugs, particularly in skin inflammatory diseases” (Universite Paris Descartes, priority 2015, dated 2019)

Assays:
Type in all cases: cell-based, human
HaCaT cells = assay: O2°− production by P. acnes-stimulated HaCaT (spectrofluorimetry, DHE); conditions: bacteria first pretreated, 0.87 to 7 μM
Protocol: FIG. 14: Dose-dependent inhibition of O2^∘− production by keratinocytes stimulated by P. acnes pre-treated by recombinant peptide. HaCaT cell were incubated for 18 h with P. acnes PIE strain at a concentration adjusted to 0.2 of absorbance at 600 nm (blue bar) and with P. acnes pretreated with recombinant peptide Fg1 (light gray bar) and Fg2 (dark gray bar). Measurement of superoxide anion production was realized by spectrofluorometry as described in Materials and Methods. Control experiment was done on unstimulated HaCaT cell (red bar). Data are means±S.D. of three separate experiments. Statistical significance is indicated by * (P<0.05), ** (P<0.01), *** (P<0.001), and **** (P<0.0001), respectively.
(§1) For experiences of stimulation with P. acnes, cells were incubated with the P. acnes suspension adjusted at the appropriate concentration, pre-treated for 1 h at 37° C. or not with fibrinogen recombinant peptides Fg1 and Fg2 at the concentrations 0.87, 1.75, 3.5 or 7 μM for the desired period of time at 37° C. in 5% CO2.
All cells lines (5·10^4 to 10^5 cells/well) were seeded in 96-well plates (Corning Costar, Brumath, France) and treated as previously described. After stimulation, cells were washed three times in PBS and incubated with 100 μl per wells of 5 μM DHE (for determination of O2^●−) or 5 μM H2-DCFDA (for determination of H2O2) for 30 min as described previously and fluorescence intensity was recorded every hour over a period of 5 h. Fluorescence excitation/emission maxima were for DHE: 480/610 nm and for H2-DCFDA: 507/525 nm. At the end of the experiment, the number of adherent cells was evaluated by the crystal violet assay as described below. […] Levels of ROS were calculated in each sample as follows: reactive oxygen species rate (arbitrary units/min/10^6 cells)=(fluorescence intensity [arbitrary units] at T5h—fluorescence intensity [arbitrary units] at To/300 minutes/number of adherent cells as measured by the crystal violet assay, and were expressed as arbitrary unit (A.U.). […]

MRC5 cells [1] = assay: O2°− production by P. acnes-stimulated MRC5; conditions: bacteria first pretreated, 0.87 to 7 μM
Protocol: as §1
(§2) All cells lines (5·10^4 to 10^5 cells/well) were seeded in 96-well plates (Corning Costar, Brumath, France) and treated as previously described. After stimulation, cells were washed three times in PBS and incubated with 100 μl per wells of 5 μM DHE (for determination of O2^●−) or 5 μM H2-DCFDA (for determination of H2O2) for 30 min as described previously and fluorescence intensity was recorded every hour over a period of 5 h. Fluorescence excitation/emission maxima were for DHE: 480/610 nm and for H2-DCFDA: 507/525 nm. At the end of the experiment, the number of adherent cells was evaluated by the crystal violet assay as described below. O2^●−, and H2O2 were assayed by spectrofluorimetry on a Fusion spectrofluorimeter (PackardBell, Paris, France). Levels of ROS were calculated in each sample as follows: reactive oxygen species rate (arbitrary units/min/10^6 cells)=(fluorescence intensity [arbitrary units] at T5h—fluorescence intensity [arbitrary units] at To/300 minutes/number of adherent cells as measured by the crystal violet assay, and were expressed as arbitrary unit (A.U.).
To assess the efficacy of Fg1 recombinant peptide, the production of O2^∘− and H2O2 by HaCaT cells NHDK, THP-1, MRC5 and HDF stimulated by pretreated P. acnes strains 6919, RON and PIE was measured. The amount of ROS produced was compared to that produced by the stimulated cells with untreated bacteria. Production baseline was obtained by measuring ROS on unstimulated cells. The production of IL-1ß, IL-8, IL-12 and TNF-α was also measured in all conditions cited above. The measurement of the production of ROS is performed by spectrofluorimetry in the presence of specific fluorochromes directly on the monolayer cell. […]

NHDK cells [2] = assay: H2O2 production by P. acnes-stimulated NHDK; conditions: 0.87 to 7 μM
Protocol: as §1, §2
(§3) To assess the efficacy of Fg1 recombinant peptide, the production of O2^∘− and H2O2 by HaCaT cells NHDK, THP-1, MRC5 and HDF stimulated by pretreated P. acnes strains 6919, RON and PIE was measured. The amount of ROS produced was compared to that produced by the stimulated cells with untreated bacteria. Production baseline was obtained by measuring ROS on unstimulated cells. The production of IL-1ß, IL-8, IL-12 and TNF-α was also measured in all conditions cited above. The measurement of the production of ROS is performed by spectrofluorimetry in the presence of specific fluorochromes directly on the monolayer cell. Measurement of cytokine production was performed in parallel on the cell culture supernatant.
(§4) Two sets of experiments were implemented: 1) The cells were stimulated (18 h at 37° C.) by P. acnes strains previously pretreated with Fg1 and Fg2 peptides at the final concentrations ranging from 0.87 to 7 μM for 1 h at 37° C.; and 2) The cells were pretreated first with Fg1 and Fg2 peptides at the final concentrations ranging from 0.87 to 7 μM for 24 h at 37° C. and stimulated (18 h at 37° C.) by P. acnes strains.
(§5) To assess the efficacy of the small Fg1-related peptide, the production of H2O2 by several cell lines (HaCaT, NHDK, THP-1, MRC5 and HDF) stimulated by three P. acnes strains 6919, RON and PIE was measured, in presence or not with the small peptides. The amount of H2O2 produced is compared to that produced by the stimulated cells with untreated bacteria. Production baseline is obtained by measuring H2O2 on unstimulated cells. The measurement of the production of H2O2 is performed by spectrofluorimetry in the presence of specific fluorochromes directly on the monolayer cell.
(§6) Two sets of experiments have been implemented: • I) The cells are stimulated (18 h at 37° C.) by P. acnes strains previously pretreated with Fg1.1, Fg1.2, Fg1.3, Fg1.4, and Fg1.5 small peptides at the final concentrations ranging from 2.5 to 20 μM for 1 h at 37° C.; • II) The cells are pretreated first with the five small peptides at the final concentrations ranging from 2.5 to 20 μM for 24 h at 37° C. and stimulated (18 h at 37° C.) by P. acnes strains.

MRC5 cells [3] = assay: H2O2 production by P. acnes-stimulated MRC5; conditions: bacteria first pretreated, 0.87 to 7 μM
ThP1 cells [4] = assay: H2O2 production by P. acnes-stimulated ThP1; conditions: 0.87 to 7 μM
Protocol: as §1, §2, §3, §4, §5, §6

NHDK cells [5] = assay: IL-1β production by P. acnes-stimulated NHDK (ELISA); conditions: P. acnes 6919, set I, bacteria first pretreated, 0.87 to 7 μM
Protocol: as §1
(§7) Human IL-1ß, IL-8, IL-12, hBD-2, and TNF-α protein concentration was measured in the supernatants of stimulated cells using various ELISA Set kits (Ready-Set-Go kit from eBioscience for acne experiments, and for psoriasis experiments the Duo set IL-8 kit from R&D Systems and the BD-2 Human Development (hBD-2) from Peprotech) according to the manufacturer's instructions. We used serial dilutions of recombinant human IL-1ß, IL-8, IL-12 and TNF-α for standard curve. The optical density was determined at 450 nm at a wavelength correction of 540 nm.
To assess the efficacy of Fg1 recombinant peptide, the production of O2^∘− and H2O2 by HaCaT cells NHDK, THP-1, MRC5 and HDF stimulated by pretreated P. acnes strains 6919, RON and PIE was measured. The amount of ROS produced was compared to that produced by the stimulated cells with untreated bacteria. Production baseline was obtained by measuring ROS on unstimulated cells. The production of IL-1ß, IL-8, IL-12 and TNF-α was also measured in all conditions cited above. […]

ThP1 cells [6] = assay: IL-1β production by P. acnes-stimulated ThP1 (ELISA); conditions: for Inhibition of Interleukine 1 beta (IL-1β) production: ThP1, 0.87 to 7 μM
Protocol: as §1, §7, §3, §4

ThP1 cells [7] = assay: TNF-α production by P. acnes-stimulated ThP1 (ELISA); conditions: 0.87 to 7 μM
Protocol: as §1, §7, §3, §4

[8] = P. acnes 6919, set I, bacteria first pretreated
[9] = P. acnes 6919, set II, cells first pretreated
[10] = P. acnes PIE, set I, bacteria first pretreated
[11] = P. acnes PIE, set II, cells first pretreated
[12] = P. acnes RON, set I, bacteria first pretreated
[13] = P. acnes RON, set II, cells first pretreated

B1: MKRMVSWSFHKLKTMKHLLLLLLCVFLVKSQGVNDNEEGFFSARGHRPLDKKREEAPSLRPAPPPISGGGYRARPAKAAATQKKVERKAPDAGGCLHADPDLGVLC (protein)
chain: MKRMVSWSFHKLKTMKHLLLLLLCVFLVKSQGVNDNEEGFFSARGHRPLDKKREEAPSLRPAPPPISGGGRARPAKAAATQKKVERKAPDAGGCLHADPDLGVLCMKRMVSWSFHKLKTMKHLLLLLLCVFLVKSQGVNDNEEGFFSARGHRPLDKKREEAPSLRPAPPPISGGGYRARPAKAAATQKKVERKAPDAGGCLHADPDLGVLC
modifications: GST fusion; fragment Fg1
notes: fragment of Bß chain of human fibrinogen having 106 amino acids; recombinant GST-fused peptide expressed in E. coli
With B1 as the molecule, how does the “Inhibition of Superoxide anion (O2°−) production” value (“Inhibition of Superoxide anion” below) (HaCaT cells; P. acnes 6919, set I) read?
Its value is “pos”.

And the “Inhibition of Superoxide anion” value (HaCaT cells; P. acnes PIE, set I)?
The value was “pos”.

And the “Inhibition of Superoxide anion” value (HaCaT cells; P. acnes RON, set I)?
Its value is “pos”.

And the “Inhibition of Superoxide anion” value (MRC5 cells [1]; P. acnes 6919, set I)?
Its value is “pos”.

And the “Inhibition of Superoxide anion” value (MRC5 cells [1]; P. acnes PIE, set I)?
The value was “pos”.

And the “Inhibition of Superoxide anion” value (MRC5 cells [1]; P. acnes RON, set I)?
Its value is “pos”.

What about the “Inhibition of Hydrogen peroxide (H2O2) production” value (“Inhibition of Hydrogen peroxide” for short) (NHDK cells [2]; [8]) of the same molecule?
The value was “pos”.

And the “Inhibition of Hydrogen peroxide” value (NHDK cells [2]; [9])?
Its value is “pos”.

And the “Inhibition of Hydrogen peroxide” value (NHDK cells [2]; [10])?
The value was “pos”.

What about the “Inhibition of Hydrogen peroxide” value (NHDK cells [2]; [11]) of the same molecule?
The value was “pos”.

And the “Inhibition of Hydrogen peroxide” value (NHDK cells [2]; [12])?
The value was “pos”.

And the “Inhibition of Hydrogen peroxide” value (NHDK cells [2]; [13])?
Its value is “pos”.

And the “Inhibition of Hydrogen peroxide” value (MRC5 cells [3]; P. acnes 6919, set I)?
The value was “pos”.

What about the “Inhibition of Hydrogen peroxide” value (MRC5 cells [3]; P. acnes PIE, set I) of the same molecule?
Its value is “pos”.

And the “Inhibition of Hydrogen peroxide” value (MRC5 cells [3]; P. acnes RON, set I)?
Its value is “pos”.

And the “Inhibition of Hydrogen peroxide” value (ThP1 cells [4]; [8])?
Its value is “pos”.

And the “Inhibition of Hydrogen peroxide” value (ThP1 cells [4]; [9])?
The value was “pos”.

And the “Inhibition of Hydrogen peroxide” value (ThP1 cells [4]; [10])?
The value was “pos”.

What about the “Inhibition of Hydrogen peroxide” value (ThP1 cells [4]; [11]) of the same molecule?
The value was “pos”.

What about the “Inhibition of Hydrogen peroxide” value (ThP1 cells [4]; [12]) of the same molecule?
Its value is “pos”.

And the “Inhibition of Hydrogen peroxide” value (ThP1 cells [4]; [13])?
The value was “pos”.

What about the “Inhibition of Interleukine 1 beta (IL-1β) production” value (“Inhibition of Interleukine 1 beta” below) (NHDK cells [5]) of the same molecule?
Its value is “pos”.

And the “Inhibition of Interleukine 1 beta” value (ThP1 cells [6]; [8])?
Its value is “NO (Inhibition NO: Fg1 has no effect on the production of inflammatory molecule)”.

What about the “Inhibition of Interleukine 1 beta” value (ThP1 cells [6]; [9]) of the same molecule?
Its value is “NO (Inhibition NO: Fg1 has no effect on the production of inflammatory molecule)”.

And the “Inhibition of Interleukine 1 beta” value (ThP1 cells [6]; [10])?
Its value is “NO (Inhibition NO: Fg1 has no effect on the production of inflammatory molecule)”.

What about the “Inhibition of Interleukine 1 beta” value (ThP1 cells [6]; [11]) of the same molecule?
The value was “NO (Inhibition NO: Fg1 has no effect on the production of inflammatory molecule)”.

And the “Inhibition of Interleukine 1 beta” value (ThP1 cells [6]; [12])?
Its value is “NO (Inhibition NO: Fg1 has no effect on the production of inflammatory molecule)”.

What about the “Inhibition of Interleukine 1 beta” value (ThP1 cells [6]; [13]) of the same molecule?
The value was “NO (Inhibition NO: Fg1 has no effect on the production of inflammatory molecule)”.

And the “Effect on the production of IL-1ß” value (ThP1 cells [6]; whatever the strain of P. acnes used, production effective only for monocytes)?
Its value is “no effect”.

What about the “Inhibition of Interleukine TNF alpha (TNF-α) production” value (shortened to “Inhibition of Interleukine TNF alpha”) (ThP1 cells [7]; [8]) of the same molecule?
The value was “pos”.

And the “Inhibition of Interleukine TNF alpha” value (ThP1 cells [7]; [9])?
The value was “pos”.

And the “Inhibition of Interleukine TNF alpha” value (ThP1 cells [7]; [10])?
Its value is “pos”.

What about the “Inhibition of Interleukine TNF alpha” value (ThP1 cells [7]; [11]) of the same molecule?
Its value is “pos”.

And the “Inhibition of Interleukine TNF alpha” value (ThP1 cells [7]; [12])?
The value was “pos”.

And the “Inhibition of Interleukine TNF alpha” value (ThP1 cells [7]; [13])?
Its value is “pos”.
